# Laboratory results: the supplement of paper PMC9112550, “Optimization of the antimicrobial peptide Bac7 by deep mutational scanning” (BMC Biology, 2022)
# System: Escherichia coli TOP10
# Experiment: shrunken log2 fold change of peptide-encoding DNA abundance (4.5 h post-induction vs induction); higher = less antimicrobial activity (less host growth inhibition)
# Conditions: time post-induction: 4.5 h; library: site-saturation at positions 5, 18, 19, 20
# 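Further: peptides expressed intracellularly from a pBAD plasmid library in pooled LB shake-flask culture, induced with 0.3% L-arabinose, DNA abundance read by NGS, three biological replicates, DESeq2 with apeglm shrinkage.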
row,Sequence,shrunken log2 fold change
1,RRIRIRPPRLPRPRPRPLADPRP,-0.0519
2,RRIRRRPPRLPRPRPRPWLPPRP,0.221
3,RRIRCRPPRLPRPRPRPVIPPRP,-0.392
4,RRIRQRPPRLPRPRPRPAETPRP,0.0338
5,RRIRQRPPRLPRPRPRPRLYPRP,0.0786
6,RRIRSRPPRLPRPRPRPEVQPRP,-0.0242
7,RRIRWRPPRLPRPRPRPYLIPRP,-0.38
8,RRIRQRPPRLPRPRPRPHAQPRP,0.384
9,RRIRCRPPRLPRPRPRPLYYPRP,-1.03
10,RRIRGRPPRLPRPRPRPQHLPRP,-0.054
11,RRIRLRPPRLPRPRPRPAESPRP,0.197
12,RRIRDRPPRLPRPRPRPANYPRP,-0.148
13,RRIRLRPPRLPRPRPRPVTTPRP,-0.216
14,RRIRYRPPRLPRPRPRPPWTPRP,-0.343
15,RRIRFRPPRLPRPRPRPDNGPRP,-0.13
16,RRIRNRPPRLPRPRPRPTCPPRP,0.059
17,RRIRGRPPRLPRPRPRPSCLPRP,0.571
18,RRIRRRPPRLPRPRPRPHARPRP,0.586
19,RRIRARPPRLPRPRPRPGTLPRP,0.22
20,RRIRDRPPRLPRPRPRPLDMPRP,-0.08
21,RRIRMRPPRLPRPRPRPRRSPRP,0.438
22,RRIRRRPPRLPRPRPRPFPQPRP,0.441

row,Sequence,shrunken log2 fold change
1,RRIRRRPPRLPRPRPRPKSNPRP,0.0649
2,RRIRLRPPRLPRPRPRPTNGPRP,0.129
3,RRIRIRPPRLPRPRPRPFNNPRP,-0.318
4,RRIRWRPPRLPRPRPRPQNPPRP,-0.0448
5,RRIRVRPPRLPRPRPRPKWCPRP,0.289
6,RRIRYRPPRLPRPRPRPRYAPRP,-0.0163
7,RRIRARPPRLPRPRPRPGAVPRP,0.578
8,RRIRSRPPRLPRPRPRPDEFPRP,-0.149
9,RRIRCRPPRLPRPRPRPQKLPRP,-0.188
10,RRIRPRPPRLPRPRPRPMHLPRP,-0.034
11,RRIRWRPPRLPRPRPRPSWHPRP,0.0186
12,RRIRVRPPRLPRPRPRPPEIPRP,-0.0437
13,RRIRCRPPRLPRPRPRPSSTPRP,-0.855
14,RRIRFRPPRLPRPRPRPKDSPRP,-0.335
15,RRIRCRPPRLPRPRPRPWLAPRP,-0.298
16,RRIRLRPPRLPRPRPRPICLPRP,0.193
17,RRIRARPPRLPRPRPRPEWMPRP,0.252
18,RRIRCRPPRLPRPRPRPYRHPRP,-0.982
19,RRIRPRPPRLPRPRPRPYKHPRP,-0.777
20,RRIRERPPRLPRPRPRPWPAPRP,0.238
21,RRIRYRPPRLPRPRPRPHYRPRP,-0.433
22,RRIRLRPPRLPRPRPRPCLTPRP,-0.304

row,Sequence,shrunken log2 fold change
1,RRIRWRPPRLPRPRPRPVFLPRP,-0.0837
2,RRIRNRPPRLPRPRPRPYLHPRP,-0.429
3,RRIRMRPPRLPRPRPRPMESPRP,-0.00987
4,RRIRTRPPRLPRPRPRPWRVPRP,-0.00468
5,RRIRSRPPRLPRPRPRPQLNPRP,-0.248
6,RRIRARPPRLPRPRPRPEQSPRP,0.119
7,RRIRRRPPRLPRPRPRPIRPPRP,0.198
8,RRIRQRPPRLPRPRPRPMAEPRP,0.0238
9,RRIRIRPPRLPRPRPRPSRLPRP,-0.0995
10,RRIRWRPPRLPRPRPRPCYRPRP,0.131
11,RRIRFRPPRLPRPRPRPRSEPRP,0.11
12,RRIRWRPPRLPRPRPRPWAGPRP,0.167
13,RRIRQRPPRLPRPRPRPWHIPRP,-0.00133
14,RRIRLRPPRLPRPRPRPDHIPRP,-0.221
15,RRIRCRPPRLPRPRPRPRLMPRP,0.174
16,RRIRLRPPRLPRPRPRPCLRPRP,-0.0817
17,RRIRQRPPRLPRPRPRPHIWPRP,-0.333
18,RRIRVRPPRLPRPRPRPAEHPRP,-0.086
19,RRIRARPPRLPRPRPRPVETPRP,0.759
20,RRIRERPPRLPRPRPRPNDIPRP,0.0203
21,RRIRQRPPRLPRPRPRPNCLPRP,-0.0533
22,RRIRVRPPRLPRPRPRPVNDPRP,-0.201

row,Sequence,shrunken log2 fold change
1,RRIRTRPPRLPRPRPRPRVTPRP,-0.163
2,RRIRWRPPRLPRPRPRPKDQPRP,0.508
3,RRIRWRPPRLPRPRPRPNQYPRP,-0.113
4,RRIRDRPPRLPRPRPRPVKLPRP,-0.896
5,RRIRIRPPRLPRPRPRPCQSPRP,-0.00131
6,RRIRDRPPRLPRPRPRPDKNPRP,-0.224
7,RRIRGRPPRLPRPRPRPWWHPRP,-0.22
8,RRIRERPPRLPRPRPRPGLDPRP,-0.0204
9,RRIRERPPRLPRPRPRPFWAPRP,0.084
10,RRIRYRPPRLPRPRPRPTYGPRP,-0.196
11,RRIRGRPPRLPRPRPRPYVYPRP,-0.0911
12,RRIRHRPPRLPRPRPRPNLNPRP,-0.786
13,RRIRMRPPRLPRPRPRPAIIPRP,0.0113
14,RRIRNRPPRLPRPRPRPGRPPRP,0.123
15,RRIRKRPPRLPRPRPRPNHQPRP,-0.376
16,RRIRERPPRLPRPRPRPAASPRP,0.141
17,RRIRCRPPRLPRPRPRPRLWPRP,1.01
18,RRIRMRPPRLPRPRPRPCRTPRP,-0.129
19,RRIRNRPPRLPRPRPRPMDTPRP,-0.141
20,RRIRLRPPRLPRPRPRPTRWPRP,0.456
21,RRIRARPPRLPRPRPRPHFVPRP,0.0302
22,RRIRDRPPRLPRPRPRPYWTPRP,-0.195

row,Sequence,shrunken log2 fold change
1,RRIRLRPPRLPRPRPRPQADPRP,0.112
2,RRIRERPPRLPRPRPRPLSCPRP,0.075
3,RRIRWRPPRLPRPRPRPRRAPRP,0.737
4,RRIRARPPRLPRPRPRPLRNPRP,0.516
5,RRIRYRPPRLPRPRPRPYLKPRP,-0.478
6,RRIRPRPPRLPRPRPRPNPDPRP,0.0105
7,RRIRQRPPRLPRPRPRPHQCPRP,-0.401
8,RRIRDRPPRLPRPRPRPRVGPRP,0.972
9,RRIRLRPPRLPRPRPRPESWPRP,0.162
10,RRIRSRPPRLPRPRPRPTWYPRP,-0.123
11,RRIRKRPPRLPRPRPRPMDNPRP,0.103
12,RRIRQRPPRLPRPRPRPCAHPRP,-0.256
13,RRIRWRPPRLPRPRPRPHQHPRP,-0.214
14,RRIRMRPPRLPRPRPRPEFHPRP,0.0755
15,RRIRARPPRLPRPRPRPERVPRP,0.577
16,RRIRHRPPRLPRPRPRPMWHPRP,-0.152
17,RRIRQRPPRLPRPRPRPNMMPRP,-0.442
18,RRIRRRPPRLPRPRPRPQINPRP,0.0135
19,RRIRSRPPRLPRPRPRPIFPPRP,1.04
20,RRIRARPPRLPRPRPRPYFLPRP,-0.557
21,RRIRWRPPRLPRPRPRPMPAPRP,0.995
